Target: AVR-Pii effector domain (residues 20 to 70), purified (Magnaporthe oryzae)
Assay: ITC

B1: OsExo70F2, N-terminally truncated, purified (domain or fragment)
chain: ISAAAFDAAEQLIQVWDGTPEALVFEATEDEVAEYLSAVDVAIEHLARGSGGGAGGAGSSSSSTAGRAGVAVQLAMARLEEELRHLMVRHAVPLDPTGLFFSLRRLSLGSMDDLDTSSEFDAATPHSIDVAPETARGGPLVNPFEDQVFDPVRPEAVDDLRAIADRMARAGYSRELADAYCGIRRDLLDEYLSALGVERLSIDEVQRIEWKHLNDKMKKWVQAVKTVVRVLLAGERRLCDQVLSVSDELREECFIESTKGCIMQILSFGDAVAVCPRSPEKLSRILDMYEALAEVIPEMKDLCLGSSGDGVISDVQANLDRLGDAIRGTLFEFGKVLQLESSRRAMTAGEIHPMTRYVMNYLRLLVVYSDTLDALLDDNADDQIDLARAEDQDQEHLESMTPLGKRLLKLISYLEANLEEKSKLYEDSALECIFSMNNLLYIVQKVRDSELGKILGDHWVKRRNGKIRQYSKSYLRISWMKVLSFLKDDGHGSGSGSSSGSGSGHSSSRMSIKEKFKNFNLAFEEIYRNQTTWKVPDPQLREELKISISENVIPAYRAFLGRYGSQVDGGRNSGKYIKYTPEDLESQLSDLFEGAPGPANHSRRRT
B1 was tested. Which Kd did it give?
The Kd was < 1 nM.
